In US20250320281A1:

How the values were obtained:
Assay in all cases: cell-based or functional assay
[1] = target: HIV-1 APV-17 envelope glycoprotein (Env) on pseudovirus (HIV-1)
[2] = target: HIV-1 Env of pseudovirus MGRM-G-001 (clade G) (HIV-1)
[3] = target: HIV-1 Env of pseudovirus MGRM-AG-013 (clade CRF_AG) (HIV-1)
[4] = target: HIV-1 envelope glycoprotein (Env) of isolate MGRM-A-009, clade A (HIV-1)
[5] = target: HIV-1 envelope glycoprotein (Env) of isolate 93RW029, clade A (HIV-1)
[6] = target: HIV-1 Env of pseudovirus MGRM-G-006 (clade G) (HIV-1)
[7] = target: HIV-1 Env of pseudovirus MGRM-Chronic-B-017 (HIV-1)
[8] = target: HIV-1 Env of isolate 93IN905 (HIV-1)
[9] = target: HIV-1 Env of pseudovirus CMU02 (clade CRF01_AE) (HIV-1)
[10] = target: HIV-1 92TH021 envelope glycoprotein (Env) on pseudovirus (HIV-1)
[11] = target: HIV-1 APV-6 envelope glycoprotein (Env) on pseudovirus (HIV-1)
[12] = target: HIV-1 92RW020 Env (pseudovirus, clade A) (HIV-1)
[13] = target: HIV-1 Env of pseudovirus MGRM-AG-011 (clade CRF_AG) (HIV-1)
[14] = target: HIV-1 Env of isolate NL43 (subtype B pseudovirus) (HIV-1)
[15] = target: HIV-1 Env of isolate MGRM-F1-012 (pseudovirus) (HIV-1)
[16] = target: HIV-1 Env of isolate TRJ04551.58 (subtype B pseudovirus) (HIV-1)
[17] = target: HIV-1 Env of isolate MGRM-D-014 (pseudovirus) (HIV-1)
[18] = target: HIV-1 Env of isolate CMU02 (clade AE), on pseudovirus (HIV-1)
[19] = target: HIV-1 Env of isolate 92UG024 (pseudovirus) (HIV-1)
[20] = target: HIV-1 Env of isolate MGRM-Chronic-B-001 (subtype B pseudovirus) (HIV-1)
[21] = target: HIV-1 Env of isolate 97ZA012 (HIV-1)
[22] = target: HIV-1 JRCSF Env (pseudovirus, clade B) (HIV-1) (UniProt P20871)
[23] = target: HIV-1 APV13 Env (pseudovirus, clade B) (HIV-1)
[24] = target: HIV-1 Env of isolate MGRM-AE-005 (subtype AE) (HIV-1)
[25] = target: HIV-1 Env of isolate MGRM-G-025 (HIV-1)
[26] = target: HIV-1 Env of isolate SC422661.8 (subtype B) (HIV-1)
[27] = target: HIV-1 envelope glycoprotein (Env) of isolate MGRM-C-026 (HIV-1)
[28] = target: HIV-1 envelope glycoprotein (Env) of isolate MGRM-C-006 (HIV-1)
[29] = target: HIV-1 envelope glycoprotein (Env) of isolate MGRM-C-023 (HIV-1)
[30] = target: HIV-1 Env of isolate MGRM-AG-013 (subtype AG) (HIV-1)
[31] = target: HIV-1 Env of isolate 98IN022 (subtype C) (HIV-1)
[32] = target: HIV-1 Env of isolate MGRM-Chronic-B-004 (subtype B) (HIV-1)
[33] = target: HIV-1 Env of isolate MGRM-AG-006 (subtype AG) (HIV-1)
[34] = target: HIV-1 Env of isolate 92WR024 (HIV-1)
[35] = target: HIV-1 Env of isolate MGRM-Chronic-B-008 (subtype B) (HIV-1)
[36] = target: HIV-1 Env of isolate MGRM-A-013 (subtype A) (HIV-1)
[37] = target: HIV-1 envelope glycoprotein (Env) of isolate MGRM-C-019 (HIV-1)

4970_K22 (PGT-144) (antibody), sequence (VH): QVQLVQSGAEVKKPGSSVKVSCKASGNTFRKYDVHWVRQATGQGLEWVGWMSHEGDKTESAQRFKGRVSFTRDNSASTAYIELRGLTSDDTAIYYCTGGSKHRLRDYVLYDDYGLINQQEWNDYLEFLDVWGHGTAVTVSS
4970_K22 (PGT-144) (antibody), sequence (VL): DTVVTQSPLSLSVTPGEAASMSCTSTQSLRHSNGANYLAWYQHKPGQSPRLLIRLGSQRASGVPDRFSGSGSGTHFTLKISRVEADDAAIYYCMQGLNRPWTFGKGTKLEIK
4995_E20 (PGT-142) (antibody), sequence (VH): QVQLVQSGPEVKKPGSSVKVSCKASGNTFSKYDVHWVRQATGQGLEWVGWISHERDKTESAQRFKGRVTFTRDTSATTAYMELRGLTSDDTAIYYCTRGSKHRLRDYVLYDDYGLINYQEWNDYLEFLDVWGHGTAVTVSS
4995_E20 (PGT-142) (antibody), sequence (VL): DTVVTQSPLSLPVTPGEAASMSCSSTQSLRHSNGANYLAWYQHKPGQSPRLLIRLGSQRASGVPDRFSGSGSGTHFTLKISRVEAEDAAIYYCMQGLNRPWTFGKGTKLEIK
4980_N08 (PGT-143) (antibody), sequence (VH): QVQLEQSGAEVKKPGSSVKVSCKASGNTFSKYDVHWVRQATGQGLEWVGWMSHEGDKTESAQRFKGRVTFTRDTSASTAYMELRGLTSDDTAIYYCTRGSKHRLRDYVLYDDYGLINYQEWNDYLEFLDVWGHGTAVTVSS
4980_N08 (PGT-143) (antibody), sequence (VL): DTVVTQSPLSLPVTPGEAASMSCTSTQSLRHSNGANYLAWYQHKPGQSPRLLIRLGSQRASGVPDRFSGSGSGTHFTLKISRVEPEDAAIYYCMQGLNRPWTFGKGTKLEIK
4993_K13 (PGT-141) (antibody), sequence (VH): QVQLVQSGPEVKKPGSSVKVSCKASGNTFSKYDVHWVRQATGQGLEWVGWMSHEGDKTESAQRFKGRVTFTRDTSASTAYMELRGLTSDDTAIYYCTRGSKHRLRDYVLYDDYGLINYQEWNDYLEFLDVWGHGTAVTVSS

1496_C09 (PG9) (TCN-109) (antibody)
IC50, pseudovirus neutralization [1]: 26.4 µg/mL | IC50 [2]: 0.16 µg/mL | IC50 [3]: 0.23 µg/mL | IC50 (µg/ml), pseudovirus neutralization [4]: 0.03 µg/mL | IC50 (µg/ml), pseudovirus neutralization [5]: 1.19 µg/mL | IC50 [6]: 0.51 µg/mL | IC50 (µg/ml), pseudovirus neutralization [7]: 0.32 µg/mL | IC50 [8]: 0.03 µg/mL | IC50 [9]: 7.69 µg/mL | IC50, pseudovirus neutralization [10]: 0.111 µg/mL | IC50, pseudovirus neutralization [11]: 0.0869 µg/mL | IC50 neutralization [12]: 0.161 µg/mL | IC50 [13]: 0.01 µg/mL

4838_L06 (PGT-121) (antibody)
IC50 (µg/mL), pseudovirus neutralization [14]: > 50 µg/mL | IC50, pseudovirus neutralization [15]: 1.91 µg/mL | IC50 (µg/mL), pseudovirus neutralization [16]: 7.09 µg/mL | IC50, pseudovirus neutralization [17]: 0.009 µg/mL | IC50, pseudovirus neutralization [18]: > 10 µg/mL | IC50, pseudovirus neutralization [19]: > 50 µg/mL | IC50 (µg/mL), pseudovirus neutralization [20]: 0.102 µg/mL | neutralization IC50 [21]: 0.002 µg/mL

4858_P08 (PGT-123) (antibody)
IC50 (µg/mL), pseudovirus neutralization [14]: > 50 µg/mL | IC50, pseudovirus neutralization [15]: 22.2 µg/mL | IC50 (µg/mL), pseudovirus neutralization [16]: 16.9 µg/mL | neutralization IC50 [10]: > 10 µg/mL | neutralization IC80 [10]: > 10 µg/mL | neutralization IC90 [10]: > 10 µg/mL | neutralization IC95 [10]: > 10 µg/mL | IC50, pseudovirus neutralization [17]: 0.009 µg/mL | IC50 neutralization [22]: 0.0423 µg/mL | IC50 neutralization [12]: 0.0038 µg/mL | IC50 neutralization [23]: 0.222 µg/mL | IC50, pseudovirus neutralization [18]: > 10 µg/mL | IC50, pseudovirus neutralization [19]: > 50 µg/mL | IC50 (µg/mL), pseudovirus neutralization [20]: 0.15 µg/mL | neutralization IC50 [21]: 0.002 µg/mL

4877_D15 (PGT-122) (antibody)
IC50 (µg/mL), pseudovirus neutralization [14]: > 50 µg/mL | IC50, pseudovirus neutralization [15]: > 50 µg/mL | IC50 (µg/mL), pseudovirus neutralization [16]: > 50 µg/mL | IC50, pseudovirus neutralization [17]: 0.012 µg/mL | IC50 neutralization [22]: 0.0727 µg/mL | IC50 neutralization [12]: 0.0072 µg/mL | IC50 neutralization [23]: 0.992 µg/mL | IC50, pseudovirus neutralization [18]: > 10 µg/mL | IC50, pseudovirus neutralization [19]: > 50 µg/mL | IC50 (µg/mL), pseudovirus neutralization [20]: 0.138 µg/mL | neutralization IC50 [21]: 0.004 µg/mL

4970_K22 (PGT-144) (antibody)
IC50 (µg/mL), pseudovirus neutralization [24]: > 50 µg/mL | IC50 (µg/mL), pseudovirus neutralization [25]: > 50 µg/mL

4980_N08 (PGT-143) (antibody)
IC50 (µg/mL), pseudovirus neutralization [24]: > 50 µg/mL | IC50 (µg/mL), pseudovirus neutralization [25]: > 50 µg/mL

4993_K13 (PGT-141) (antibody)
IC50 (µg/mL), pseudovirus neutralization [24]: > 50 µg/mL | IC50 (µg/mL), pseudovirus neutralization [25]: > 50 µg/mL

4995_E20 (PGT-142) (antibody)
IC50 (µg/mL), pseudovirus neutralization [24]: > 50 µg/mL | IC50 (µg/mL), pseudovirus neutralization [25]: > 50 µg/mL

5114_A19 (PGT-128) (antibody)
IC50 neutralization [26]: 1.58 µg/mL | IC50 (µg/mL), pseudovirus neutralization [27]: 0.007 µg/mL | IC50 (µg/mL), pseudovirus neutralization [28]: 0.014 µg/mL | IC50 (µg/mL), pseudovirus neutralization [29]: 0.026 µg/mL | IC50 (µg/mL), pseudovirus neutralization [30]: 0.004 µg/mL | IC50 neutralization [31]: 0.014 µg/mL | IC50 neutralization [32]: 0.009 µg/mL | IC50 (µg/mL), pseudovirus neutralization [24]: 0.032 µg/mL | IC50 (µg/mL), pseudovirus neutralization [33]: 0.009 µg/mL | IC50 [34]: > 50 µg/mL | IC50 neutralization [35]: 0.143 µg/mL | IC50 (µg/mL), pseudovirus neutralization [36]: 0.008 µg/mL | IC50 (µg/mL), pseudovirus neutralization [37]: 0.01 µg/mL
